Source: article PMC6602975

Biological target: H4K16ac nucleosome
Experiment: EMSA
Settings: chain shown with the change

B1: Sir3 BAH domain (construct 1–214), P06701 D205N (protein)
chain: MAKTLKDLDGWQVIITDDQGRVIDDNNRRRSRKRGGENVFLKRISDGLSFGKGESVIFNDNVTETYSVYLIHEIRLNTLNNVVEIWVFSYLRWFELKPKLYYEQFRPDLIKEDHPLEFYKDKFFNEVNKSELYLTAELSEIWLKDFIAVGQILPESQWNDSSIDKIEDRDFLVRYACEPTAEKFVPIDIFQIIRRVKEMEPKQSNEYLKRVSVP
- Kd: 810 nM
